From PMC8152684 come the findings set out here.

As usually defined, the Km is the substrate concentration at which the rate is half of its maximum.

Substrate in this series: NC(=O)C[C@H](N)C(=O)O
Nature of the series: purified protein. To be noted: free enzyme in solution, 50 mM Tris-HCl pH 8.6, 37 °C.

B1: L-asparaginase (Asp) (Escherichia coli K-12) (protein)
chain: LPNITILATGGTIAGGGDSATKSNYTVGKVGVENLVNAVPQLKDIANVKGEQVVNIGSQDMNDNVWLTLAKKINTDCDKTDGFVITHGTDTMEETAYFLDLTVKCDKPVVMVGAMRPSTSMSADGPFNLYNAVVTAADKASANRGVLVVMNDTVLDGRDVTKTNTTDVATFKSVNYGPLGYIHNGKIDYQRTPARKHTSDTPFDVSKLNELPKVGIVYNYANASDLPAKALVDAGYDGIVSAGVGNGNLYKSVFDTLATAAKTGTAVVRSSRVPTGATTQDAEVDDAKYGFVASGTLNPQKARVLLQLALTQTKDPQQIQQIFNQY
Regarding B1, the Km was determined as 140 µM.
